B1: Two-component response regulator-like APRR1 (Arabidopsis thaliana (Mouse-ear cress)), Q9LKL2 (parent)
chain: MDLNGECKGGDGFIDRSRVRILLCDNDSTSLGEVFTLLSECSYQVTAVKSARQVIDALNAEGPDIDIILAEIDLPMAKGMKMLRYITRDKDLRRIPVIMMSRQDEVPVVVKCLKLGAADYLVKPLRTNELLNLWTHMWRRRRMLGLAEKNMLSYDFDLVGSDQSDPNTNSTNLFSDDTDDRSLRSTNPQRGNLSHQENEWSVATAPVHARDGGLGADGTATSSLAVTAIEPPLDHLAGSHHEPMKRNSNPAQFSSAPKKSRLKIGESSAFFTYVKSTVLRTNGQDPPLVDGNGSLHLHRGLAEKFQVVASEGINNTKQARRATPKSTVLRTNGQDPPLVNGNGSHHLHRGAAEKFQVVASEGINNTKQAHRSRGTEQYHSQGETLQNGASYPHSLERSRTLPTSMESHGRNYQEGNMNIPQVAMNRSKDSSQVDGSGFSAPNAYPYYMHGVMNQVMMQSAAMMPQYGHQIPHCQPNHPNGMTGYPYYHHPMNTSLQHSQMSLQNGQMSMVHHSWSPAGNPPSNEVRVNKLDRREEALLKFRRKRNQRCFDKKIRYVNRKRLAERRPRVKGQFVRKMNGVNVDLNGQPDSADYDDEEEEEEEEEEENRDSSPQDDALGT
partner: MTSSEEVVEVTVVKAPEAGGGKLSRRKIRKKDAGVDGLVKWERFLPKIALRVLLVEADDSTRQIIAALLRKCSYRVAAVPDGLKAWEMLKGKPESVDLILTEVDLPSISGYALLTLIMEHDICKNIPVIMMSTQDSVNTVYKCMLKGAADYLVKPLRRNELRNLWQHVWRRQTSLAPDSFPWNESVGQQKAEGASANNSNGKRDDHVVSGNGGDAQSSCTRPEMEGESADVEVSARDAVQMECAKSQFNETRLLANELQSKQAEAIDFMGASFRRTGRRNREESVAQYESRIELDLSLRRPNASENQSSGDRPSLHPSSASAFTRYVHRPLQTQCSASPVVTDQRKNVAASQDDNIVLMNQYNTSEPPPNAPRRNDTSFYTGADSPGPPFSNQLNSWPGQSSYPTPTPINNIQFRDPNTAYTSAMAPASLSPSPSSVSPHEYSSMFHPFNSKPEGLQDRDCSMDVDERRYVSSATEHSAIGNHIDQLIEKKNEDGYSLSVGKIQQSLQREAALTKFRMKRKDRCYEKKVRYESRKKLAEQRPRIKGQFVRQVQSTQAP
B2: Two-component response regulator-like APRR1 (Arabidopsis thaliana (Mouse-ear cress)), Q9LKL2 (parent)
chain: B1 chain

Variants of: B1
Details: with aprr5_arath APRR5, Q6LA42

Row | Variant | effect of a mutation on the interaction
1 | P96L | disrupting interaction

Variants of: B1
Details: with aprr5_arath APRR5, Q6LA42
Remark: another data set of the same source

Row | Variant | effect of a mutation on the interaction
2 | P124S | decreasing interaction

Variants of: B2
Details: with ado1_arath ADO1, Q94BT6
Chain of ado1_arath ADO1, Q94BT6 (Q94BT6 whole entry): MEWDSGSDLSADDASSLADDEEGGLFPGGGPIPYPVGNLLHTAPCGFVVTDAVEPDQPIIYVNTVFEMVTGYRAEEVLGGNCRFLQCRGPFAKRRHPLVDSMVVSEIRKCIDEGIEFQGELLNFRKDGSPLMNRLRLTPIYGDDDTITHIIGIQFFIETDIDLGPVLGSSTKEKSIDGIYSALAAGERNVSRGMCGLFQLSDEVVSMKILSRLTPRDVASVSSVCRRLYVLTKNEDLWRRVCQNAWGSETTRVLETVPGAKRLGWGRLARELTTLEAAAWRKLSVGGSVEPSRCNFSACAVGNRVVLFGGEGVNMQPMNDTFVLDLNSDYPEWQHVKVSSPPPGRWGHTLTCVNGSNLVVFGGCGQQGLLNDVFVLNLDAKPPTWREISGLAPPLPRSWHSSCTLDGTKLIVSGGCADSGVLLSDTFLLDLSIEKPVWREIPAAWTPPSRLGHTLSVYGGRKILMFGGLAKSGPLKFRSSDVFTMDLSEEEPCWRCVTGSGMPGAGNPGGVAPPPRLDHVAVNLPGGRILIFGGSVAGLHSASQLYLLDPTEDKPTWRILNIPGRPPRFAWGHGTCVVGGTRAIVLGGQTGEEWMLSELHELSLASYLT

Row | Variant | effect of a mutation on the interaction
3 | P96L | decreasing interaction

From IntAct's records for PubMed 20407420
